For 5 molecules, Kd and IC50 (cell based potency assay) results are on record in US20260193342A1 (ZOETIS SERVICES, published 2026).

The target in assay [1] is T1, canine FcRn complex (FcRn-α subunit and β-microglobulin) (canine, UniProt A0A8I3PFR8 25-347, biotin on the BAP tag by BirA (Example 5 only)). Put plainly: SPR (Biacore), FcRn amine-coupled to CM5, IgG flowed, pH 6, 15 C. Background: Surface plasmon resonance follows binding to a sensor surface in real time, without labels.
Assay [2] concerns the target IL-31 (target protein of mAb1). The assay can be described thus: SPR (Biacore T200), target amine-coupled to CM5, antibody flowed, 15 C, 1:1 model.
Assay [3] addresses T1, canine FcRn complex (FcRn-α subunit and …). The assay can be described thus: SPR (Biacore), biotinylated FcRn on SA chip, IgG flowed, pH 6, 15 C.
The target is the same in assay [4]. Put plainly: SPR (Biacore), biotinylated FcRn on SA chip, IgG flowed, pH 7.4, 15 C.
Assay [5] addresses IL-31 (target protein of mAb1). The assay can be described thus: cell-based or functional assay.
Assay [6] deals with T1, canine FcRn complex (FcRn-α subunit and …). Put plainly: SPR (Biacore), biotinylated FcRn on SA chip, IgG flowed, pH 6, 15 C. The source holds these as a separate data set.
Assay [7] shares this target. The assay can be described thus: SPR (Biacore), FcRn amine-coupled to CM5, IgG flowed, pH 7.2, 15 C.
Assay [8] shares this target. The assay can be described thus: SPR (Biacore), biotinylated FcRn on SA chip, IgG flowed, pH 7.4, 15 C. The source holds these as a separate data set.
For assay [9], the target named is canine FcRn complex (FcRn-α subunit and β-microglobulin) (canine). Put plainly: SPR (Biacore), FcRn amine-coupled to CM5, IgG flowed, pH 6, 15 C.
Assay [10] has as its target NGF (target protein of mAb2). Put plainly: SPR (Biacore T200), target amine-coupled to CM5, antibody flowed, 15 C, 1:1 model.
Assay [11] addresses NGF (target protein of mAb2). Put plainly: cell-based or functional assay.
For assay [12], the target named is canine FcRn complex (FcRn-α subunit and β-microglobulin) (canine). Put plainly: SPR (Biacore), FcRn amine-coupled to CM5, IgG flowed, pH 7.2, 15 C.

T1 sequence (A0A8I3PFR8 entry or part of it, one chain of several): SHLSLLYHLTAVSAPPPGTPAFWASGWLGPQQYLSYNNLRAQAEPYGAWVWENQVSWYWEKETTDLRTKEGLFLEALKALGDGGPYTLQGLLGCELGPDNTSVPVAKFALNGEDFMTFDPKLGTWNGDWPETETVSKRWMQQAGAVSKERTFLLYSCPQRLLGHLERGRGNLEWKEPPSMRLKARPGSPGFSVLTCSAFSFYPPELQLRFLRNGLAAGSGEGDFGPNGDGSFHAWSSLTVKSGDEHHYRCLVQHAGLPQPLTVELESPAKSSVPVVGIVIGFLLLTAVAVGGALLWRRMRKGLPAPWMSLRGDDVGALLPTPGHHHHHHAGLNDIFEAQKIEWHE

B1: mAb1, caninized anti-IL31 antibody 34D03, canine IgGB (65), WT (antibody)
heavy: EVQLVESGGDLVKPGGSLRLSCVASGFTFSNYGMSWVRQAPGKGLQWVATISYGGSYTYYPDNIKGRFTISRDNAKNTLYLQMNSLRAEDTAMYYCVRGYGYDTMDYWGQGTLVTVSSASTTAPSVFPLAPSCGSTSGSTVALACLVSGYFPEPVTVSWNSGSLTSGVHTFPSVLQSSGLYSLSSMVTVPSSRWPSETFTCNVAHPASKTKVDKPVPKRENGRVPRPPDCPKCPAPEMLGGPSVFIFPPKPKDTLLIARTPEVTCVVVDLDPEDPEVQISWFVDGKQMQTAKTQPREEQFNGTYRVVSVLPIGHQDWLKGKQFTCKVNNKALPSPIERTISKARGQAHQPSVYVLPPSREELSKNTVSLTCLIKDFFPPDIDVEWQSNGQQEPESKYRTTPPQLDEDGSYFLYSKLSVDKSRWQRGDTFICAVMHEALHNHYTQESLSHSPGK
VL: EIVMTQSPASLSLSQEEKVTITCKASQSVSFAGTGLMHWYQQKPGQAPKLLIYRASNLEAGVPSRFSGSGSGTDFSFTISSLEPEDVAVYYCQQSREYPWTFGQGTKLEIK
notes: VH/VL: the caninized 34D03 entries of the listing; also called mAb1 WT; mAb1 Wild-Type
Regarding B1, the Kd – broadly, the concentration at which binding is half-saturated – was 15 to 24.4 nM in assay [1], 0.483 nM in [2], 19.9 nM in [3] and 18700 nM in [4]. The same molecule yielded an IC50 (cell based potency assay) in assay [5] of 1.1 nM.

B2: mAb1, caninized anti-IL31 antibody 34D03, canine IgGB (65), N434H (antibody)
heavy: EVQLVESGGDLVKPGGSLRLSCVASGFTFSNYGMSWVRQAPGKGLQWVATISYGGSYTYYPDNIKGRFTISRDNAKNTLYLQMNSLRAEDTAMYYCVRGYGYDTMDYWGQGTLVTVSSASTTAPSVFPLAPSCGSTSGSTVALACLVSGYFPEPVTVSWNSGSLTSGVHTFPSVLQSSGLYSLSSMVTVPSSRWPSETFTCNVAHPASKTKVDKPVPKRENGRVPRPPDCPKCPAPEMLGGPSVFIFPPKPKDTLLIARTPEVTCVVVDLDPEDPEVQISWFVDGKQMQTAKTQPREEQFNGTYRVVSVLPIGHQDWLKGKQFTCKVNNKALPSPIERTISKARGQAHQPSVYVLPPSREELSKNTVSLTCLIKDFFPPDIDVEWQSNGQQEPESKYRTTPPQLDEDGSYFLYSKLSVDKSRWQRGDTFICAVMHEALHHHYTQESLSHSPGK
VL: EIVMTQSPASLSLSQEEKVTITCKASQSVSFAGTGLMHWYQQKPGQAPKLLIYRASNLEAGVPSRFSGSGSGTDFSFTISSLEPEDVAVYYCQQSREYPWTFGQGTKLEIK
notes: VH/VL: the caninized 34D03 entries of the listing; also called mAb1 N434H; mAb1 N434H Mutant
As for B2, the Kd in [6] is 6.45 nM; in assay [1] it was 0.7 to 1.3 nM; in [7], 5000 nM; in assay [2] it was 0.373 nM. This molecule came in with an IC50 (cell based potency assay) in assay [5] of 0.99 nM.

B3: mAb1, caninized anti-IL31 antibody 34D03, canine IgGB, N434W (antibody)
heavy: EVQLVESGGDLVKPGGSLRLSCVASGFTFSNYGMSWVRQAPGKGLQWVATISYGGSYTYYPDNIKGRFTISRDNAKNTLYLQMNSLRAEDTAMYYCVRGYGYDTMDYWGQGTLVTVSSASTTAPSVFPLAPSCGSTSGSTVALACLVSGYFPEPVTVSWNSGSLTSGVHTFPSVLQSSGLYSLSSMVTVPSSRWPSETFTCNVAHPASKTKVDKPVPKRENGRVPRPPDCPKCPAPEMLGGPSVFIFPPKPKDTLLIARTPEVTCVVVDLDPEDPEVQISWFVDGKQMQTAKTQPREEQFNGTYRVVSVLPIGHQDWLKGKQFTCKVNNKALPSPIERTISKARGQAHQPSVYVLPPSREELSKNTVSLTCLIKDFFPPDIDVEWQSNGQQEPESKYRTTPPQLDEDGSYFLYSKLSVDKSRWQRGDTFICAVMHEALHWHYTQESLSHSPGK
light: EIVMTQSPASLSLSQEEKVTITCKASQSVSFAGTGLMHWYQQKPGQAPKLLIYRASNLEAGVPSRFSGSGSGTDFSFTISSLEPEDVAVYYCQQSREYPWTFGQGTKLEIKRNDAQPAVYLFQPSPDQLHTGSASVVCLLNSFYPKDINVKWKVDGVIQDTGIQESVTEQDKDSTYSLSSTLTMSSTEYLSHELYSCEITHKSLPSTLIKSFQRSEC
notes: VH/VL: the caninized 34D03 entries of the listing; also called ID No. 21; copies: 2 + 2
B3: the dissociation constant Kd was 1.98 nM in [6] and 25300 nM in assay [8].

B4: mAb2 of Tables 1-3, caninized anti-NGF antibody, canine IgGB (65), WT (antibody, part only; not given: Anti-NGF heavy and light variable domains, part only)
heavy, part: ASTTAPSVFPLAPSCGSTSGSTVALACLVSGYFPEPVTVSWNSGSLTSGVHTFPSVLQSSGLYSLSSMVTVPSSRWPSETFTCNVAHPASKTKVDKPVPKRENGRVPRPPDCPKCPAPEMLGGPSVFIFPPKPKDTLLIARTPEVTCVVVDLDPEDPEVQISWFVDGKQMQTAKTQPREEQFNGTYRVVSVLPIGHQDWLKGKQFTCKVNNKALPSPIERTISKARGQAHQPSVYVLPPSREELSKNTVSLTCLIKDFFPPDIDVEWQSNGQQEPESKYRTTPPQLDEDGSYFLYSKLSVDKSRWQRGDTFICAVMHEALHNHYTQESLSHSPGK
In the case of B4, the figures for the dissociation constant (Kd) in assay [9] and in [10] were 57.2 nM and 0.0851 nM, respectively. The molecule also came in with an IC50 (cell based potency assay) in assay [11] of 23.7 nM.

B5: mAb2 of Tables 1-3, caninized anti-NGF antibody, canine IgGB (65), N434H (antibody, part only; not given: Anti-NGF heavy and light variable domains, part only)
heavy, part: ASTTAPSVFPLAPSCGSTSGSTVALACLVSGYFPEPVTVSWNSGSLTSGVHTFPSVLQSSGLYSLSSMVTVPSSRWPSETFTCNVAHPASKTKVDKPVPKRENGRVPRPPDCPKCPAPEMLGGPSVFIFPPKPKDTLLIARTPEVTCVVVDLDPEDPEVQISWFVDGKQMQTAKTQPREEQFNGTYRVVSVLPIGHQDWLKGKQFTCKVNNKALPSPIERTISKARGQAHQPSVYVLPPSREELSKNTVSLTCLIKDFFPPDIDVEWQSNGQQEPESKYRTTPPQLDEDGSYFLYSKLSVDKSRWQRGDTFICAVMHEALHHHYTQESLSHSPGK
Regarding B5, the dissociation constant (Kd) in [12] was 1300 nM; in assay [9] it was 7.3 nM; in assay [10], 0.0555 nM. Moreover, the IC50 (cell based potency assay) in [11] amounted to 20.9 nM.
